Experimental data: article PMC11271267

Molecular target: MetCb purified individually (Aminobacter sp. strain NyZ550)
Test: not stated; purified MetCb alone in solution; experiment not described

- stoichiometry N: 6
Substance: MetCb purified individually (natural protein)
